# Measured values: IntAct's records for PubMed 8626665
# B1: Transcription initiation factor IIA subunit 2 (Homo sapiens), P52657 (parent)
# chain: MAYQLYRNTTLGNSLQESLDELIQSQQITPQLALQVLLQFDKAINAALAQRVRNRVNFRGSLNTYRFCDNVWTFVLNDVEFREVTELIKVDKVKIVACDGKNTGSNTTE
# partner: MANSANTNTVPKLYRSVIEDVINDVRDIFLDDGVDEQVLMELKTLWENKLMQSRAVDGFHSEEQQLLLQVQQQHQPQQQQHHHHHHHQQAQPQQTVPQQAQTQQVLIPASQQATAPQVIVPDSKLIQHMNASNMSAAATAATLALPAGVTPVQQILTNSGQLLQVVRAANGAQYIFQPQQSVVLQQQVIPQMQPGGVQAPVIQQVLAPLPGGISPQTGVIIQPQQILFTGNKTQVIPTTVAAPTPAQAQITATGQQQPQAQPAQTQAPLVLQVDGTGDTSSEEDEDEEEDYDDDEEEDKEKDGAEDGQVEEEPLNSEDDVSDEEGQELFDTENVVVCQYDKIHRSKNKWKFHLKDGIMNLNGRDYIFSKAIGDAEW
# B2: Transcription initiation factor IIA subunit 2 (Homo sapiens), P52657 (parent)
# chain: B1 chain
# Variants of: B1
# Details: with tf2aa_human GTF2A1, P52655
row,Variant,effect of a mutation on the interaction
1,F40A,decreasing interaction
2,D41A,decreasing interaction
3,K42A,decreasing interaction
4,E109A,decreasing interaction

# Variants of: B2
# Details: with tbp_human TBP
row,Variant,effect of a mutation on the interaction
1,D20A,decreasing interaction
2,Y65A,decreasing interaction
